Measured values published in patent US20210179716A1 (Pfizer, published 2021).

Tests used:
Test in all cases: KD; method not stated
cynomolgus CD47 protein = target: T1, cynomolgus CD47 protein (cynomolgus monkey, UniProt A0A2K5X523 19-139)
T1 construct: also called cyCD47; Cyno CD47

human CD47 protein = target: T2, human CD47 protein (human, UniProt Q08722 19-139, limits assumed)
T2 construct: Soluble protein used for the KD measurements; construct not described; also called hCD47; CD47 (human)

human PD-L1 protein = target: T3, human PD-L1 protein (human, UniProt Q9NZQ7 19-238)
T3 construct: Soluble protein used for the KD measurements; construct not described; also called hPD-L1; CD274

mouse PD-L1 protein = target: T4, mouse PD-L1 protein (mouse, UniProt Q9EP73 19-238)
T4 construct: also called mPD-L1

cynomolgus PD-L1 protein = target: T5, cynomolgus PD-L1 protein (cynomolgus monkey, UniProt G7PSE7 19-238)
T5 construct: also called cyPD-L1; Cyno PD-L1
T5 sequence (G7PSE7 entry or part of it): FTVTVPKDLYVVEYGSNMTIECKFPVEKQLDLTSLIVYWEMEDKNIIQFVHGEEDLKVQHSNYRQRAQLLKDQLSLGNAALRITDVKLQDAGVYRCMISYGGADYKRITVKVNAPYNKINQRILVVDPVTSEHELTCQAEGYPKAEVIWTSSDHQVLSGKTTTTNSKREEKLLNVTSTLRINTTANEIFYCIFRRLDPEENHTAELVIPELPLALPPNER

T4 sequence (Q9EP73 19-238 limits assumed): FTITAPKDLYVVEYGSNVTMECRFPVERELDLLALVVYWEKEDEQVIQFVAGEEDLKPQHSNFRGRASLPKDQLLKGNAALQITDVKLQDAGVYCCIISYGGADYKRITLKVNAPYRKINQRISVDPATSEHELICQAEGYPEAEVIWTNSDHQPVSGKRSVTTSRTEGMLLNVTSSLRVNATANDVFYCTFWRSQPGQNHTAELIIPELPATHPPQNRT
T3 sequence (Q9NZQ7 19-238 limits assumed): as the sequence (G7PSE7 entry or part of it) above, with T33A, S34A, N62S, Q68R, R82Q, L173F, A185T, I192T, L215H counted along it
T2 sequence (Q08722 19-139 limits assumed): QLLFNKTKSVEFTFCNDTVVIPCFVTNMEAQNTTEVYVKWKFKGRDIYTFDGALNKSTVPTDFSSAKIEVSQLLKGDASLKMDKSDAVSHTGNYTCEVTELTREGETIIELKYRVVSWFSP

| Kd (cynomolgus CD47 protein) [nM] | Kd (human CD47 protein) [nM] | Kd (human PD-L1 protein) [nM] | Kd (mouse PD-L1 protein) [nM] | Kd (cynomolgus PD-L1 protein) [nM] | Binder |
| --- | --- | --- | --- | --- | --- |
| 704 | 497 | – | – | – | P01A11_Y27G_N31S_L54I_G100A_M113L (antibody, V domains shown, Variant of P01A11) VH: QVQLVQSGAEVKKPGSSVKVSCKASGGTFTSYAISWVRQAPGQGLEWMGGISPIFGTANYAQKFQGRVTITADESTSTAYMELSSLRSEDTAVYYCARDAGRSSDVGWYVGALDVWGQGTLVTVSS VL: not shown |
| – | – | 95.5 | > 1500 | 92.2 | P06B05_D56E_G57A (antibody, V domains shown, Variant of P06B05) VH: EVQLVESGGGLVKPGGSLRLSCAASGFTFSNAWMNWVRQAPGKGLEWVGRIKTKAEAGTTDYAAPVKGRFTISRDDSKNTLYLQMNSLKTEDTAVYYCTTDPGSYWDSVYGGMDYWGQGTLVTVSS VL: not shown |
| – | – | 12.8 | – | 6.58 | P06B05_Y105H (antibody, V domains shown, Variant of P06B05) VH: EVQLVESGGGLVKPGGSLRLSCAASGFTFSNAWMNWVRQAPGKGLEWVGRIKTKADGGTTDYAAPVKGRFTISRDDSKNTLYLQMNSLKTEDTAVYYCTTDPGSHWDSVYGGMDYWGQGTLVTVSS VL: not shown |
| – | – | < 0.74 | – | 0.99 | P06B05_S104I (antibody, V domains shown, Variant of P06B05) VH: EVQLVESGGGLVKPGGSLRLSCAASGFTFSNAWMNWVRQAPGKGLEWVGRIKTKADGGTTDYAAPVKGRFTISRDDSKNTLYLQMNSLKTEDTAVYYCTTDPGIYWDSVYGGMDYWGQGTLVTVSS VL: not shown |
| – | – | 5.98 | – | 3.73 | P06B05_D61S_Y62Q (antibody, V domains shown, Variant of P06B05) VH: EVQLVESGGGLVKPGGSLRLSCAASGFTFSNAWMNWVRQAPGKGLEWVGRIKTKADGGTTSQAAPVKGRFTISRDDSKNTLYLQMNSLKTEDTAVYYCTTDPGSYWDSVYGGMDYWGQGTLVTVSS VL: not shown |
| – | – | 69.7 | – | 60.6 | P06B05_D56E_G57E (antibody, V domains shown, Variant of P06B05) VH: EVQLVESGGGLVKPGGSLRLSCAASGFTFSNAWMNWVRQAPGKGLEWVGRIKTKAEEGTTDYAAPVKGRFTISRDDSKNTLYLQMNSLKTEDTAVYYCTTDPGSYWDSVYGGMDYWGQGTLVTVSS VL: not shown |
| – | – | 5.97 | – | 4.96 | P06B05_D61A_Y62Q (antibody, V domains shown, Variant of P06B05) VH: EVQLVESGGGLVKPGGSLRLSCAASGFTFSNAWMNWVRQAPGKGLEWVGRIKTKADGGTTAQAAPVKGRFTISRDDSKNTLYLQMNSLKTEDTAVYYCTTDPGSYWDSVYGGMDYWGQGTLVTVSS VL: not shown |
| – | – | 9.75 | – | 5.79 | P06B05_S104Y (antibody, V domains shown, Variant of P06B05) VH: EVQLVESGGGLVKPGGSLRLSCAASGFTFSNAWMNWVRQAPGKGLEWVGRIKTKADGGTTDYAAPVKGRFTISRDDSKNTLYLQMNSLKTEDTAVYYCTTDPGYYWDSVYGGMDYWGQGTLVTVSS VL: not shown |
| – | – | 90.2 | – | 83 | P06B05_D107L (antibody, V domains shown, Variant of P06B05) VH: EVQLVESGGGLVKPGGSLRLSCAASGFTFSNAWMNWVRQAPGKGLEWVGRIKTKADGGTTDYAAPVKGRFTISRDDSKNTLYLQMNSLKTEDTAVYYCTTDPGSYWLSVYGGMDYWGQGTLVTVSS VL: not shown |
| – | – | 4.01 | – | 3.67 | P06B05_D61A_Y62A (antibody, V domains shown, Variant of P06B05) VH: EVQLVESGGGLVKPGGSLRLSCAASGFTFSNAWMNWVRQAPGKGLEWVGRIKTKADGGTTAAAAPVKGRFTISRDDSKNTLYLQMNSLKTEDTAVYYCTTDPGSYWDSVYGGMDYWGQGTLVTVSS VL: not shown |
| – | – | 3.5 | – | 3.93 | P06B05_S104A (antibody, V domains shown, Variant of P06B05) VH: EVQLVESGGGLVKPGGSLRLSCAASGFTFSNAWMNWVRQAPGKGLEWVGRIKTKADGGTTDYAAPVKGRFTISRDDSKNTLYLQMNSLKTEDTAVYYCTTDPGAYWDSVYGGMDYWGQGTLVTVSS VL: not shown |
| – | – | 1.69 | 77.7 | 1.74 | P06B05_G112S (antibody, V domains shown, Variant of P06B05) VH: EVQLVESGGGLVKPGGSLRLSCAASGFTFSNAWMNWVRQAPGKGLEWVGRIKTKADGGTTDYAAPVKGRFTISRDDSKNTLYLQMNSLKTEDTAVYYCTTDPGSYWDSVYGSMDYWGQGTLVTVSS VL: not shown |
| – | – | 3.03 | – | 3.23 | P06B05_D107Y (antibody, V domains shown, Variant of P06B05) VH: EVQLVESGGGLVKPGGSLRLSCAASGFTFSNAWMNWVRQAPGKGLEWVGRIKTKADGGTTDYAAPVKGRFTISRDDSKNTLYLQMNSLKTEDTAVYYCTTDPGSYWYSVYGGMDYWGQGTLVTVSS VL: not shown |
| – | – | 3.28 | – | 3.17 | P06B05_D61A_Y62E (antibody, V domains shown, Variant of P06B05) VH: EVQLVESGGGLVKPGGSLRLSCAASGFTFSNAWMNWVRQAPGKGLEWVGRIKTKADGGTTAEAAPVKGRFTISRDDSKNTLYLQMNSLKTEDTAVYYCTTDPGSYWDSVYGGMDYWGQGTLVTVSS VL: not shown |
| – | – | 7.9 | – | 6.11 | P06B05_S104H (antibody, V domains shown, Variant of P06B05) VH: EVQLVESGGGLVKPGGSLRLSCAASGFTFSNAWMNWVRQAPGKGLEWVGRIKTKADGGTTDYAAPVKGRFTISRDDSKNTLYLQMNSLKTEDTAVYYCTTDPGHYWDSVYGGMDYWGQGTLVTVSS VL: not shown |
| – | – | 5.81 | – | 4.43 | P06B05_D61Q_Y62E (antibody, V domains shown, Variant of P06B05) VH: EVQLVESGGGLVKPGGSLRLSCAASGFTFSNAWMNWVRQAPGKGLEWVGRIKTKADGGTTQEAAPVKGRFTISRDDSKNTLYLQMNSLKTEDTAVYYCTTDPGSYWDSVYGGMDYWGQGTLVTVSS VL: not shown |
| – | – | 23.9 | – | 26.3 | P06B05_D107S (antibody, V domains shown, Variant of P06B05) VH: EVQLVESGGGLVKPGGSLRLSCAASGFTFSNAWMNWVRQAPGKGLEWVGRIKTKADGGTTDYAAPVKGRFTISRDDSKNTLYLQMNSLKTEDTAVYYCTTDPGSYWSSVYGGMDYWGQGTLVTVSS VL: not shown |
| – | – | 9.49 | – | 8.39 | P06B05_D61E_Y62E (antibody, V domains shown, Variant of P06B05) VH: EVQLVESGGGLVKPGGSLRLSCAASGFTFSNAWMNWVRQAPGKGLEWVGRIKTKADGGTTEEAAPVKGRFTISRDDSKNTLYLQMNSLKTEDTAVYYCTTDPGSYWDSVYGGMDYWGQGTLVTVSS VL: not shown |
| – | – | 76.5 | – | > 100 | P06B05_V109S (antibody, V domains shown, Variant of P06B05) VH: EVQLVESGGGLVKPGGSLRLSCAASGFTFSNAWMNWVRQAPGKGLEWVGRIKTKADGGTTDYAAPVKGRFTISRDDSKNTLYLQMNSLKTEDTAVYYCTTDPGSYWDSSYGGMDYWGQGTLVTVSS VL: not shown |
| – | – | 3.71 | 131 | 3.72 | P06B05_G112A (antibody, V domains shown, Variant of P06B05) VH: EVQLVESGGGLVKPGGSLRLSCAASGFTFSNAWMNWVRQAPGKGLEWVGRIKTKADGGTTDYAAPVKGRFTISRDDSKNTLYLQMNSLKTEDTAVYYCTTDPGSYWDSVYGAMDYWGQGTLVTVSS VL: not shown |
| – | – | 6.82 | – | 6.55 | P06B05_M113L (antibody, V domains shown, Variant of P06B05) VH: EVQLVESGGGLVKPGGSLRLSCAASGFTFSNAWMNWVRQAPGKGLEWVGRIKTKADGGTTDYAAPVKGRFTISRDDSKNTLYLQMNSLKTEDTAVYYCTTDPGSYWDSVYGGLDYWGQGTLVTVSS VL: not shown |
| – | – | 8.06 | – | 8.11 | P06B05_G103I (antibody, V domains shown, Variant of P06B05) VH: EVQLVESGGGLVKPGGSLRLSCAASGFTFSNAWMNWVRQAPGKGLEWVGRIKTKADGGTTDYAAPVKGRFTISRDDSKNTLYLQMNSLKTEDTAVYYCTTDPISYWDSVYGGMDYWGQGTLVTVSS VL: not shown |
| – | – | 5.37 | – | 2.75 | P06B05_D61A_Y62S (antibody, V domains shown, Variant of P06B05) VH: EVQLVESGGGLVKPGGSLRLSCAASGFTFSNAWMNWVRQAPGKGLEWVGRIKTKADGGTTASAAPVKGRFTISRDDSKNTLYLQMNSLKTEDTAVYYCTTDPGSYWDSVYGGMDYWGQGTLVTVSS VL: not shown |
| – | – | 5.02 | – | 5.54 | P06B05_D61Q_Y62S (antibody, V domains shown, Variant of P06B05) VH: EVQLVESGGGLVKPGGSLRLSCAASGFTFSNAWMNWVRQAPGKGLEWVGRIKTKADGGTTQSAAPVKGRFTISRDDSKNTLYLQMNSLKTEDTAVYYCTTDPGSYWDSVYGGMDYWGQGTLVTVSS VL: not shown |
| – | – | 6.1 | – | 2.15 | P06B05_D61S_Y62S (antibody, V domains shown, Variant of P06B05) VH: EVQLVESGGGLVKPGGSLRLSCAASGFTFSNAWMNWVRQAPGKGLEWVGRIKTKADGGTTSSAAPVKGRFTISRDDSKNTLYLQMNSLKTEDTAVYYCTTDPGSYWDSVYGGMDYWGQGTLVTVSS VL: not shown |
| – | – | 6.71 | – | < 1.19 | P06B05_D61S_Y62A (antibody, V domains shown, Variant of P06B05) VH: EVQLVESGGGLVKPGGSLRLSCAASGFTFSNAWMNWVRQAPGKGLEWVGRIKTKADGGTTSAAAPVKGRFTISRDDSKNTLYLQMNSLKTEDTAVYYCTTDPGSYWDSVYGGMDYWGQGTLVTVSS VL: not shown |
| – | – | 0.8 | 23.1 | 0.45 | P06B05_S104E (antibody, V domains shown, Variant of P06B05) VH: EVQLVESGGGLVKPGGSLRLSCAASGFTFSNAWMNWVRQAPGKGLEWVGRIKTKADGGTTDYAAPVKGRFTISRDDSKNTLYLQMNSLKTEDTAVYYCTTDPGEYWDSVYGGMDYWGQGTLVTVSS VL: not shown |
